In patent publication US20150252099A1 (TRELLIS BIOSCIENCE, published 2015):
Where two headings read alike, the source gives them in different places.

Experiments:
[1] = target: T1, AD-2 peptide NETIYNTTLKYGDV (human cytomegalovirus (CMV)); experiment: ELISA binding assay on the AD-2 peptide
T1 construct: also called peptide AD-2; conserved peptide designated AD-2
T1 peptide: NETIYNTTLKYGDV

[2] = target: T2, CMV gB protein (strain AD169), purified (human cytomegalovirus (CMV), strain …, UniProt P06473 32-906, limits assumed); experiment: cell-based or functional assay
[3] = target: T2, CMV gB protein (strain AD169), purified; experiment: ForteBio biosensor, antibody coupled to the probe, gB in solution
Procedure: (§1) In this method, the carboxylic acid groups on Amine Reactive Biosensors were activated with EDC/NHS. […] The gB protein was incubated with the Ab-coated probe and rates of association to and dissociation from the Ab-coated probe were determined by the FortéBio® instrument.

[4] = target: T2, CMV gB protein (strain AD169), purified; experiment: as above; remark: listed apart in the source
Procedure: as §1

[5] = target: T2, CMV gB protein (strain AD169), purified; experiment: told with the gB binding kinetics (ForteBio biosensor); reference mAb 4A2
Procedure: as §1

T2 sequence (P06473 32-906 limits assumed): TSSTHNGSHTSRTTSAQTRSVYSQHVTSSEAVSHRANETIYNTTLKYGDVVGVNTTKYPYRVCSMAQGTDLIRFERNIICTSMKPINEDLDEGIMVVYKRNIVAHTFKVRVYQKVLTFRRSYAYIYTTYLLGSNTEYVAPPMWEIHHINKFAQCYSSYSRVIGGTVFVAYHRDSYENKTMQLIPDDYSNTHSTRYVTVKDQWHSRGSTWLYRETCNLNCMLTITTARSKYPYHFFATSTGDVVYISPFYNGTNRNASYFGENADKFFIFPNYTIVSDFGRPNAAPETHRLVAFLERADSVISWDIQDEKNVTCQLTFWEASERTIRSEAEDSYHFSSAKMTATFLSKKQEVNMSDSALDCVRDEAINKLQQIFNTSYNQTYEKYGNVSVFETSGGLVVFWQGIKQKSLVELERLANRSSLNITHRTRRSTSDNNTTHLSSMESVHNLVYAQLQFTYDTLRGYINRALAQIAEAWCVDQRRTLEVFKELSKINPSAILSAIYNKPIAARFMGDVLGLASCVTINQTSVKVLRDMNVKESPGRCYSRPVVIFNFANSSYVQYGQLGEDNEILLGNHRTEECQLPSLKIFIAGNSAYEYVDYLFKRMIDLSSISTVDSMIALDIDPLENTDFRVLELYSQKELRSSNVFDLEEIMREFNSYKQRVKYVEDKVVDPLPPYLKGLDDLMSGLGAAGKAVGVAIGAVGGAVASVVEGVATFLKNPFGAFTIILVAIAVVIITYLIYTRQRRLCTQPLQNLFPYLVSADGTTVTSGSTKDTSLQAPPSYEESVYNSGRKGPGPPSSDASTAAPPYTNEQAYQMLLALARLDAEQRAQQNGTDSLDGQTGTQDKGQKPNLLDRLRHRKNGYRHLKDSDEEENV

B1: mAb 19B10 (antibody, V domains shown)
VH: QVQLQQSGPGLVKPSQTLSLTCTVSGGSISSGDFCWNWIRQPPGKGLEWIGYICYTGDTYYNPPLNSRVTISVDRSRNQISLRLSSVTAADTAVYYCAREDRRQLHSRPYFYYGLDVWGRGTKVTVSS
VL: EIVMTQSPLSLPVTPGETASISCRSSQSLLHSNGHNYLDWYLQKPGQSPHLLIYLGSIRASGVPDRFSGSGTGTDFTLKISRVEAEDVGVYYCMQALQTPNTFGQGTKLEIRR
notes: Human mAb
binding result [1]: no binding
IC50 (µg/mL), neutralizing potency [2]: 0.04 µg/mL
Kd [3]: 0.697 nM

B2: mAb 4A2 (antibody, V domains shown)
VH: QVLLEESGGGVVQPGRSLRLSCAGSGFTFNRHGIHWVRQAPGKGLEWVTVISSDGANQQYAESVKGRFIISRDNSKNTVYLEMNSLRNDDTGVYFCARDGRCEGERCYSGVTDFWGQGTLV
VL: EIVLTQSPATLSLSPGERATLSCRASQNIGGYLAWFQQKAGQAPRLLIYDASIRATGIPARFSGSGSGTDFTLTISSLEPEDFAVYYCQQRNSWPPLTFG
notes: Human mAb
IC50 (µg/mL), neutralizing potency [2]: 0.02 µg/mL
Kd [3]: 0.168 nM

B3: MAB310 (antibody, V domains shown)
VH: QVQLVQSGGGVVQPGTSLRLSCAASGFMFNTYNMHWVRQAPGKGLEWVAVISNDGTYKYSADSLKGRFSISRDNSKNTLYLHMNSLRPDDTAVYYCARDGRSVGGFSGILDPWGQGTLVTVSS
VL: EIVLTQSPATLSLSPGDRATLSCRASQTVGRYLAWYQQKPGQAPRLLIYDASDRATGISARFSGSGSGTDFTLTISSLEPEDFAVYYCQQRSNWPPLTFGGGTKVEIKR
Kd [4]: 0.8 nM
koff [4]: 1.2e-05 s⁻¹
kon [4]: 16000 M⁻¹ s⁻¹
fold higher potency than mAb 4A2 [5]: ~10 fold

B4: MAB313 (antibody, V domains shown)
VH: QVQLVQSGGGVIQPGRSLTLSCAASGFTFSAYSLHWVRQAPGKGLQWVAVISFDGNFKHFADSLRGRFTISRDNSKNRFYLQMNGLRGEDTAVYYCARDGRAVDGFSGILDFWGQGTLVSVSS
VL: EIVMTQSPATLSLSPGERATLSCRASQSVGRYLTWFQQKPGQAPRLLIYDASERATGIPARFSGSGSGTDFTLTISSLEPEDFAVYYCQQRANWPPLTFGGGTKVEIK
Kd [4]: 0.7 nM
koff [4]: 1.2e-05 s⁻¹
kon [4]: 17000 M⁻¹ s⁻¹
fold higher potency than mAb 4A2 [5]: ~10 fold

B5: MAB345 (antibody, V domains shown)
VH: QVQLVESGGGVVQPGRSLRLSCAASGFTFSDYNMHWVRQAPGKGLEWVAVISIDGTYKYSADSVAGRFSLSRDNSKNTLYLQMNSLRPDDTAIYYCARDGRSVGGFSGILDPWGQGTLVTVSS
VL: EIVMTQSPATLSLSPGDRATLSCRASQSVGSYLAWYQQKPGQAPRLLMYDSSVRATGIPARFSGSGSGTDFTLTISSLEPEDFAVYYCQQRNNWPPLTFGGGTKVEIK
notes: also called ATCC PTA-121705
Kd [4]: 2.3 nM
koff [4]: 3.3e-05 s⁻¹
kon [4]: 14000 M⁻¹ s⁻¹

B6: MAB338 (antibody, V domains shown)
VH: QVQLVESGGGVVQPGRSLRLSCSGSGFTFSDYNLHWVRQAPGKGLEWVAVISIDGTNKHHADSVKGRFTISRDNSKNTVNLEMSRLKAEDTAVYYCVRDGRSIGGYSGIFDPWGQGTLVTVSS
VL: EIVLTQSPATLSLSPGERATLSCRASQSVDRYLAWYQQKPGQAPRLLIYDASQRATGIPARFSGSGSGTDFTLAISSLEPEDVAVYYCQQRSNWPPLTFGGGTKIEIK
fold higher potency than mAb 4A2 [5]: ~10 fold
